Laboratory results as given in patent publication US20220135694A1, “NOVEL CD40-BINDING ANTIBODIES” (LAVA THERAPEUTICS B.V., priority 2019, published 2022).

Legend:
[1] = test system: CD40-transfected HEK293T cells; test: Cytotoxicity assay: CD40-transfected HEK293T target cells with Vγ9Vδ2-T cells; assay type: cell-based, human
Method: HEK293T cells, either wildtype (WT) or transfected with human CD40, were grown as described in Example 2. Vγ9Vδ2-T cells were grown as described in Example 7.
The cytotoxicity experiment, viability measurement and flow cytometry were performed as described in Example 12.

[2] = test system: MM.1s cells; assay type: in vivo, mouse
Method: FIG. 18: The bispecific […] VHH prolongs survival in vivo. Immunodeficient NSG mice were irradiated on day −1 and grafted (i.v.) with 2.5*10^6 MM.1s cells on day 0. Mice received PBS or human Vγ9Vδ2-T cells (1*10^7 cells; both i.v.) on days 7, 14 and 21 followed by PBS or V19S76K-5C8 (VHH; 5 mg/kg; both i.p.) twice weekly starting on day 9. (A) Schematic overview of treatment schedule. (B) Kaplan-Meier analyses of mouse survival (control: n=6; V19S76K-5C8 (VHH): n=6, Vγ9Vδ2-T cells: n=8, Vγ9Vδ2-T cells+V19S76K-5C8 (VHH): n=8). CD40 expression on MM.1s cells (human CD45^+CD38^+ cells) in the (C) bone marrow (BM) and (D) plasmacytomas at the time of sacrifice. (E) Body weight after 7 weeks of treatment relative to individual body weight at time of tumor injection. **P<0.01, ***P<0.001. Data are presented as mean and SD. (B: Mantel-Cox logrank test followed by Holm-Sidak's post hoc test, C: one-way ANOVA followed by Dunnett's post hoc test compared to control mice, D: unpaired t-test).
To study the effects of the bispecific VHH on tumor growth in vivo, immunodeficient NSG mice were injected with cells of MM.1s, a human multiple myeloma cell line. The tumor cells were allowed to grow out and engraft for 1 week before mice received the first of three weekly i.v. injections with either human Vγ9Vδ2-T cells or PBS, followed by twice weekly i.p. injections with V19S76K-5C8 or PBS (FIG. 18A).

[3] = target: T1, CD40 (Homo sapiens, UniProt P25942); test: CD40 antagonistic activity in primary CLL cells: pre-incubation, then rmCD40L for 48 h; assay type: cell-based; settings: pre-incubation, then rmCD40L for 48 hours; FIG. 8A-C
T1 construct: Primary chronic lymphocytic leukemia (CLL) cells express CD40 on the cell surface; endogenous in cells; host or cells: primary CLL PBMCs from untreated CLL patients
Method: PBMCs (≥90% CD5^+CD19^+) from untreated CLL patients were obtained and cryopreserved as described in […]. Thawed cells were kept in complete IMDM.
To test whether the VHH antagonizes CD40 stimulation, primary CLL PBMCs were pre-incubated with VHH or medium control for 30 minutes at 37° C. and subsequently cultured for 48 hours in the presence of rmCD40L (100 ng/mL).
After 48 hours, cells were analyzed by flow cytometry as described in Example 4.
To assess whether binding of the VHH has antagonistic effects, primary CLL PBMCs were pre-incubated with V19S76K-5C8 or medium control and then cultured with rmCD40L for 48 hours and analyzed by flow cytometry as described in Example 5.

[4] = test system: primary MM cells; test: Lysis of primary multiple myeloma cells by healthy donor-derived Vγ9Vδ2-T cells; assay type: cell-based, human; settings: overnight with healthy donor-derived Vγ9Vδ2-T cells, 1:1; FIG. 17B
Method: FIG. 17: V19S76K-5C8 is active against primary multiple myeloma. (A) Example of CD40 expression on primary MM cells, as detected using anti-CD40 PE antibody, clone MAB89, Beckman Couter, IM1936U. Representative histograms of 4 donors (B) Bone marrow of MM patients was cultured overnight in the presence or absence of healthy donor-derived Vγ9Vδ2-T cells in a 1:1 (Vγ9Vδ2-T:plasma cell) ratio in the absence or presence of V19S76K-5C8 (10 μM or 10 nM). Live plasma cells were quantified by flow cytometry using counting beads (n=5). (C, D) Mononuclear cells from the bone marrow of MM patients were cultured overnight with V19S76K-5C8 (VHH; 10 nM), aminobisphosphonate (ABP; 10 μM zoledronic acid (positive control)) or medium control in the presence of brefeldin, monensin and anti-CD107a to measure (C) cytokine production and (D) degranulation by flow cytometry (n=6). Data are presented as mean and SEM. *P<0.05, **P<0.01. (B-D: repeated-measures one-way ANOVA followed by Dunnett's post hoc test compared to condition without antibody).
Because CD40 is also expressed on primary multiple myeloma (MM) cells (Pellat-Deceunynck et al. (1994) Blood 84:2597) (FIG. 17A) and CD40 stimulation exerts various biological effects, including proliferation of MM cells, we assessed the efficacy of V19S76K-5C8 in primary bone marrow samples from MM patients.

[5] = target: T1, CD40; test: CD40 agonistic activity in primary CLL cells, 48 h, flow cytometry; assay type: cell-based; settings: FIG. 7A-C
Method: PBMCs (≥90% CD5^+CD19^+) from untreated CLL patients were obtained and cryopreserved as described in Example 3. Thawed cells were kept in complete IMDM.
To assess whether binding of the VHH to CD40 has agonistic effects, primary CLL PBMCs were cultured for 48 hours in the presence of VHH, medium control or recombinant multimeric CD40 ligand (rmCD40L; 100 ng/mL, Bioconnect).
After 48 hours, cells were harvested, washed and incubated with AF700-conjugated anti-CD19 (557921), FITC-conjugated anti-CD80 (6109965), APC-conjugated anti-CD86 (555660, all BD Biosciences), PE-conjugated anti-CD5 (12-0059-42, Thermo Fisher Scientific) and PECy7-conjugated anti-CD95 (305621, Biolegend, San Diego, Calif., USA) antibodies for 20 minutes at 4° C. Alternatively, after 48 hours, cells were harvested and viability was measured using Mitotracker Orange (25-minute incubation at 37° C.) and To-pro-3 (10-minute incubation at room temperature; both Thermo Fisher Scientific). Samples were measured on a FACSCanto cytometer (BD Biosciences) and analyzed with Flowjo MacV10.
To assess whether binding of the VHH has agonistic effects, primary CLL PBMCs were cultured with the indicated concentrations of V19S76K-5C8, medium control or rmCD40L for 48 hours and analyzed by flow cytometry as described in Example 4.

T1 sequence (P25942 21-277): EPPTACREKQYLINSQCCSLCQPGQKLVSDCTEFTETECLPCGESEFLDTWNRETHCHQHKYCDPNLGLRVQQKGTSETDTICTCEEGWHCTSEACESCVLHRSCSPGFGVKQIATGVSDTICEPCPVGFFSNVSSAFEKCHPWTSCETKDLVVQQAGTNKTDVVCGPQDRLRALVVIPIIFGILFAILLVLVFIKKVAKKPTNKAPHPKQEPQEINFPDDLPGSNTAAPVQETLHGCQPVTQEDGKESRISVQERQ

B1: V19S76K-5C8: tag-less bispecific anti-CD40-anti-Vγ9Vδ2-TCR VHH, SEQ ID NO:23 (protein)
VHH: QVQLQESGGGLVQAGGSLRLSCAASGRTFGRSAMGWFRQAPGKEREFVAAIGTRGGSTKYADSVKGRFTISTDNAKNTVYLQMDSLKPEDTAVYRCAVRGPGYPSAAIFQDEYHYWGQGTQVTVSSGGGGSEVQLVESGGGLVQAGGSLRLSCAASGRPFSNYAMGWFRQAPGKEREFVAAISWSGGSTSYADSVKGRFTISRDNAKNTVYLQMNSPKPEDTAIYYCAAQFSGADYGFGRLGIRGYEYDYWGQGTQVTVSS
modifications: antibody sequence
[1]; overnight with Vγ9Vδ2-T cells, 1:1 ratio, FIG. 12
  lysis of CD40-transfected HEK293T cells: strongly enhanced
[1]; without Vγ9Vδ2-T cells
  lysis of either WT or CD40-transfected HEK293T cells: did not induce lysis
[2]; V19S76K-5C8 5 mg/kg i.p. twice weekly plus human Vγ9Vδ2-T cells i.v., control group 47 days, FIG. 18B
  median overall survival: 80 days
[2]; V19S76K-5C8 alone, without Vγ9Vδ2-T cells, FIG. 18B
  overall survival: Neither V19S76K-5C8 alone or the Vγ9Vδ2-T cells alone significantly improved overall survival
[2]; V19S76K-5C8 plus Vγ9Vδ2-T cells, FIG. 18B
  overall survival versus control group: lived significantly longer
[2]; V19S76K-5C8 plus Vγ9Vδ2-T cells, at time of sacrifice, FIG. 18C
  CD40 expression on malignant cells in the bone marrow versus control mice: significantly lower
[2]; V19S76K-5C8 plus Vγ9Vδ2-T cells, at time of sacrifice, FIG. 18D
  CD40 expression on malignant plasma cells in plasmacytomas: A similar trend was observed
[3]
  prevention of the effects of CD40 stimulation (CD80, CD86 and CD95 expression): prevented the effects of CD40 stimulation in a dose-dependent manner
[4]
  lysis of primary MM cells: lysed primary MM cells
[5]
  CD40 stimulation (expression of CD80, CD86 and CD95): none of the V19S76K-5C8 concentrations tested increased the expression of CD80, CD86 or CD95
